According to the supplement of paper PMC10567573:

B1: NP_116010.1 (parent)
chain: HSLRAVSTDPPHHDHHDEFCLMP

Experiments:
[1] = variants of: B1; assay: protein stability index of a GFP-peptide fusion (GPS, HEK-293T) (PSI 1-6); higher = more stable; settings: c terminus: native
[2] = variants of: B1; assay: as above; settings: c terminus: native; remark: listed apart in the source

| Variant | protein stability index [1] | protein stability index [2] |
| --- | --- | --- |
| L3N | 3.45 | 2.59 |
| L3M | 2.43 | 3.08 |
| L3C | 2.38 | 1.7 |
| L3I | 2.39 | 3.18 |
| L3T | 2.22 | 2.75 |
| L3S | 3.2 | 2.59 |
| L3G | 3.07 | 2.46 |
| L3V | 2.75 | 1.7 |
| L3Q | 2.78 | 2.52 |
| L3H | 2.57 | 2.9 |
| L3W | 2.23 | 2.47 |
| S2C | 2.64 | 2.73 |
| S2I | 2.49 | 2.83 |
| S2Y | 2.5 | 3.18 |
| S2Q | 2.6 | 2.68 |
| S2D | 3.12 | 2.45 |
| S2F | 2.24 | 3.2 |
| S2R | 2.73 | 1.58 |
| S2L | 2.53 | 2.93 |
| S2W | 1.9 | 1.23 |
| S2N | 3.12 | 2.72 |
| S2H | 2.69 | 1.95 |
| S2M | 2.41 | 2.38 |
| S2A | 2.31 | 3.34 |

| Variant | protein stability index [1] | protein stability index [2] |
| --- | --- | --- |
| S2T | 2.04 | 2.11 |
| S2E | 2.65 | 2.29 |
| S2K | 2.58 | 1.89 |
| S2V | 2.21 | 2.88 |
| V6A | 3 | 2.57 |
| V6I | 2.27 | 2.17 |
| V6G | 2.9 | 2.49 |
| V6M | 2.51 | 2.68 |
| V6D | 2.64 | 2.57 |
| V6R | 2.19 | 2.37 |
| V6C | 2.52 | 2.93 |
| V6K | 2.72 | 2.02 |
| V6L | 2.35 | 3.23 |
| V6S | 2.62 | 3.49 |
| V6N | 2.98 | 2.76 |
| V6Y | 2.41 | 3.34 |
| V6F | 1.92 | 2.8 |
| D14I | 1.8 | 3.58 |
| D14L | 2.02 | 2.33 |
| D14Q | 2.45 | 2.61 |
| D14S | 2.23 | 2.34 |
| D14F | 1.99 | 1.83 |
| D14M | 2.29 | 3.39 |
| D14N | 2.11 | 2.13 |

| Variant | protein stability index [1] | protein stability index [2] |
| --- | --- | --- |
| D14G | 2.23 | – |
| D14V | 2.27 | – |
| D14Y | 2.29 | – |
| D14C | 2.5 | 1.99 |
| D14A | 2.52 | 2.35 |
| D14R | 2 | 2.48 |
| D14K | 2.25 | 2.14 |
| D14E | 2.5 | – |
| D14W | 1.97 | 1.87 |
| H15K | 2.6 | 2.5 |
| H15A | 2.57 | 1.93 |
| H15F | 2.32 | 2.69 |
| H15D | 3.15 | 2.08 |
| H15G | 2.88 | 2.48 |
| H15C | 2.52 | 4.24 |
| H15E | 3 | 1.67 |
| H15L | 2.33 | 1.7 |
| A5C | 2.6 | 2.2 |
| A5D | 3.02 | 1.7 |
| A5G | 3.03 | 2.44 |
| A5I | 2.56 | 2.96 |
| A5H | 2.54 | 1.69 |
| A5F | 2.79 | 3.93 |
| A5N | 2.54 | 2.18 |

| Variant | protein stability index [1] | protein stability index [2] |
| --- | --- | --- |
| A5T | 2.38 | 2.67 |
| A5S | 2.87 | 2.34 |
| A5W | 2.96 | 4.16 |
| A5E | 2.51 | 2.01 |
| A5V | 2.37 | 3.93 |
| A5Q | 2.5 | 2 |
| A5L | 2.4 | 3.4 |
| A5K | 2.94 | 2.07 |
| A5M | 1.9 | 2.19 |
| P10M | 2.47 | 2.82 |
| P10K | 2.58 | 1.43 |
| P10A | 2.38 | 2.39 |
| P10I | 2.48 | 3.15 |
| P10W | 2.37 | 2.88 |
| P10H | 2.43 | 2.57 |
| P10F | 2.67 | – |
| P10Q | 2.56 | 2.28 |
| P10R | 2.26 | 3.17 |
| P10E | 2.77 | 2.47 |
| P10N | 2.27 | 1.91 |
| P10Y | 2.4 | 2.47 |
| P10V | 2.29 | 2.25 |
| P10L | 2.43 | 3.21 |
| P10S | 2.03 | 2.05 |

| Variant | protein stability index [1] | protein stability index [2] |
| --- | --- | --- |
| P10D | 2.88 | – |
| P10T | 2.56 | 2.11 |
| P10C | 2.29 | 2.09 |
| P10G | 2.46 | 1.84 |
| H13V | 2.33 | 1.99 |
| H13N | 2.39 | 1.91 |
| H13A | 2.31 | 2.86 |
| H13D | 3.07 | 2.18 |
| H13S | 2.5 | 2.59 |
| H13M | 2.33 | 3.31 |
| H13C | 2.58 | 2.89 |
| H13G | 2.67 | 1.73 |
| H13T | 2.46 | 2.38 |
| H13Y | 2.5 | 2.08 |
| H13L | 2.73 | 2.11 |
| H13E | 3 | 2.37 |
| H13I | 2.39 | 2.16 |
| H13W | 2.4 | 1.65 |
| H13Q | 2.59 | 1.89 |
| H13F | 2.24 | 3.29 |
| H13K | 2.33 | 2.31 |
| H13R | 2.21 | – |
